In one data set the test system is HSP90AA1 locus. Put plainly: mKate knock-in gene-editing assay, RecE/RecT homologs, HSP90AA1 locus. Type of data set: cell-based, human. Particulars: HEK293 cells, MCP fusion, n=3. How it is done:
(§1) Transfection HEK293T cells were seeded into 96-well plates (Corning) 12-24 hours prior to transfection at a density of 30,000 cells/well, and 250 ng of total DNA was transfected per well. HeLa and HepG2 cells were seeded into 48-well plates (Corning) one day prior to transfection at a density of 50,000 and 30,000 cells/well respectively, and 400 ng of total DNA was transfected per well. Transfections were performed with Lipofectamine 3000 (Life Technologies) following the manufacturer's instructions.
(§2) Fluorescence-activated cell sorting (FACS) mKate knock-in efficiency was analyzed on a CytoFLEX flow cytometer (Beckman Coulter; Stanford Stem Cell FACS Core). 72 hours after transfection, cells were washed once with PBS and dissociated with TrypLE Express Enzyme (Thermo Fisher Scientific). Cell suspension was then transferred to a 96-well U-bottom plate (Thermo Fisher Scientific) and centrifuged at 300×G for 5 minutes. After removing the supernatant, pelleted cells were resuspended with 50 μl 4% FBS in PBS, and cells were sorted within 30 minutes of preparation.
(§3) 15 different species of microbes having RecE/RecT proteins were selected for a screen of various RecE and RecT proteins across the microbial kingdom (Table 3). Each protein was codon-optimized and synthesized. As previously described for E. coli RecE/RecT based REDIT systems, each protein was fused via E-XTEN linker to the MCP protein with additional nuclear localization signal. mKate knock-in gene-editing assay was used to measure efficiencies at DYNLT1 locus (FIG. 26A, Table 4) and HSP90AA1 locus (FIG. 26B, Table 4).

For another data set, the system named is DYNLT1 locus. Kind of data set: mKate knock-in gene-editing assay, RecE/RecT homologs, DYNLT1 locus. Type of data set: cell-based, human. The note with it: HEK293 cells, MCP fusion, n=3. Here is the method: as §1, §2, §3
For the next data set, the system named is mammalian cells. Kind of data set: Arrayed SSAP library screening, cell viability by live cell counts via flow cytometry. Type of data set: cell-based. The method, boiled down:
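Each SSAP plasmid transfected in duplicate (~50% efficiency), with RecT SSAP as positive and Flag-HA as negative control. After three days, mKate-positive cells and viability by flow-cytometric live cell counts were quantified to gauge SSAP fitness effects.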
(Flow cytometry measures light scatter and fluorescence of single cells or particles in a stream.)

For data set [1], the system named is endogenous genome targets (ACTB, HSP90AA1). Kind of data set: Arrayed SSAP library screening, mKate knock-in assay (editing efficiency). Particulars: average of HSP90 and ACTB, 3 days after transfection; for Editing Efficiency (Normalized, Average, two targets): fold over negative control (Flag_HA); for Editing Efficiency (Absolute, Average, two targets): percent of mKate knock-in. Type of data set: cell-based. The method, boiled down: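 Mammalian cells in duplicate were transfected with SSAP-encoding plasmids, with about 50% transfection efficiency. mKate knock-in positive cells and viability, by flow-cytometric live counts, were quantified three days later. RecT SSAP served as positive control and Flag-HA plasmid as negative control.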

The subject of data set [2] is gene editing with Cas9 and dCas9. Kind of data set: Screen of 322 new SSAP proteins, activity across all experiments (Cas9 and dCas9, Table 5). It is filed as cell-based. Set-up: scale not given here. The method, boiled down: (§4)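 Editing screen of 322 newly identified, synthesized SSAPs, each co-used with Cas9 and with dCas9.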
The test system of a further data set is gene editing with dCas9. Kind of data set: Screen of 322 new SSAP proteins, gene editing activity with dCas9 (Table 5). Set-up: dCas9 with SSAP activity: scale not given here. It is filed as cell-based. In short, it runs like this: as §4
The subject of another data set is gene editing with Cas9. Kind of data set: Screen of 322 new SSAP proteins, gene editing activity with Cas9 (Table 5). Type of data set: cell-based. Set-up: Cas9 with SSAP activity: scale not given here. In short, it runs like this: as §4

Read-outs that look alike come from different tables or passages of the source.

B1: Homolog_T2: RecT, Pantoea brenneri; SEQ ID NO: 117 (protein, listed as Pantoea brenneri)
chain: MSNQPPIASADLQKTQQSKQVANKTPEQTLVGFMNQPAMKSQLAAALPRHMTADRMIRIVTTEIRKTPQLAQCDQSSFIGAVVQCSQLGLEPGSALGHAYLLPFGNGRSKSGQSNVQLIIGYRGMIDLARRSGQIVSLSARVVRADDEFSFEYGLDENLVHRPGENEDAPITHVYAVARLKDGGTQFEVMTVKQVEKVKAQSKASSNGPWVTHWEEMAKKTVIRRLFKYLPVSIEMQKAVVLDEKAESDVDQDNASVLSAEYSVLESGDEATN
B1: the “Mean mKate+ (%), HSP90AA1” value in the data set with HSP90AA1 locus came out at 6.9233%. Also, the “Mean mKate+ (%), DYNLT1” value with DYNLT1 locus was found to be 12.0000%.

B2: Homolog_T3: RecT, Pantoea dispersa; SEQ ID NO: 119 (protein, listed as Pantoea dispersa)
chain: MSNQPPLATADLQKTQQSNQVAKTPEQTLVGFMNQPAMKSQLAAALPRHMTADRMIRIVTTEIRKTPALAQCDQSSFIGAVVQCSQLGLEPGSALGHAYLLPFGNGRSKSGQSNVQLIIGYRGMIDLARRSGQIVSLSARVVRADDEFSFEYGLDENLIHRPGDNESAPITHVYAVARLKDGGTQFEVMTAKQVEKVKAQSKASSNGPWVTHWEEMAKKTVIRRLFKYLPVSIEMQKAVVLDEKAESDVDQDNASVLSAEYSVLESGTGE
With B2, the “Mean mKate+ (%), HSP90AA1” value in the data set with HSP90AA1 locus amounted to 7.1200%. In addition, the “Mean mKate+ (%), DYNLT1” value in the data set with DYNLT1 locus is 11.9000%.

B3: Homolog_E1: RecE, Pantoea stewartii; SEQ ID NO: 116 (protein, listed as Pantoea stewartii)
chain: MQPGVYYDISNEEYHAGPGISKSQLDDIAVSPAIFQWRKSAPVDDEKTAALDLGTALHCLLLEPDEFSKRFMIGPEVNRRTNAGKQKEQDFLDMCEQQGITPITHDDNRKLRLMRDSAFAHPVARWMLETEGKAEASIYWNDRDTQILSRCRPDKLITEFSWCVDVKSTADIGKFQKDFYSYRYHVQDAFYSDGYEAQFCEVPTFAFLVVSSSIDCGRYPVQVFIMDQQAKDAGRAEYKRNLTTYAECQARNEWPGIATLSLPYWAKEIRNV
With B3, in the data set on HSP90AA1 locus, the “Mean mKate+ (%), HSP90AA1” value was 7.6567%. Also, in the data set on DYNLT1 locus, the “Mean mKate+ (%), DYNLT1” value is listed as 5.7333%.

B4: Homolog_T4: RecT, Type-F symbiont of Plautia stali; SEQ ID NO: 121 (protein)
chain: MSNQPPIASADLQKTQQSKQVANKTPEQTLVGFMNQPAMKSQLAAALPRHMTADRMIRIVTTEIRKTPALATCDQSSFIGAVVQCSQLGLEPGSALGHAYLLPFGNGRSKSGQSNVQLIIGYRGMIDLARRSGQIVSLSARVVRADDEFSFEYGLDENLIHRPGDNEDAPITHVYAVARLKDGGTQFEVMTAKQVEKVKAQSKASSNGPWVTHWEEMAKKTVIRRLFKYLPVSIEMQKAVVLDEKAESDVDQDNASVLSAEYSVLEGDGGE
modifications: Type-F symbiont of Plautia stali
Regarding B4, in the data set with HSP90AA1 locus, the “Mean mKate+ (%), HSP90AA1” value was determined as 5.7567%. In the data set on DYNLT1 locus, the “Mean mKate+ (%), DYNLT1” value is recorded as 10.4433%.

B5: Homolog_E2: RecE, Pantoea brenneri; SEQ ID NO: 118 (protein, listed as Pantoea brenneri)
chain: MQPGIYYDISNEDYHRGAGISKSQLDDIAISPAIYQWRKHAPVDEEKTAALDLGTALHCLLLEPDEFSKRFQIGPEVNRRTTAGKEKEKEFIERCEAEGITPITHDDNRKLKLMRDSALAHPIARWMLEAQGNAEASIYWNDRDAGVLSRCRPDKIITEFNWCVDVKSTADIMKFQKDFYSYRYHVQDAFYSDGYESHFHETPTFAFLAVSTSIDCGRYPVQVFIMDQQAKDAGRAEYKRNIHTFAECLSRNEWPGIATLSLPFWAKELRNE
For the molecule B5, in the data set on HSP90AA1 locus, the “Mean mKate+ (%), HSP90AA1” value amounted to 6.4867%. For the same molecule, in the data set with DYNLT1 locus, the “Mean mKate+ (%), DYNLT1” value is 7.4533%.

B6: SSAP_199: SEQ ID NO: 368; uncultured Mediterranean phage uvMED (protein)
chain: TSSITPLVAMQGTLEKMADKFTEALPRQMDVNKFISVAKLTLNKNPRLLQADKTSLMQTFMKAAQDGLYLDGKEAAAVQYGQSVQYIPMVEGIIKVLHNSGLIKTISAEVVYENDFFDYELGTAPKITHKPLIVGDRGKPMCVYAVAITTNDGEYYEVMNMDQINQCRQVSKASSSPHSPWVKWFDQMAKKTVIHRIAKRLPKNDAINSVVTVDDEPNFQQAVNVTPSEPKDSLSRLRDSIGMEGKDVEQAANDLLEKYNKEAREE
modifications: uncultured Mediterranean phage uvMED
In the case of B6, in the data set on mammalian cells (live cell counts via flow cytometry, average of HSP90 and ACTB), the “Cell Viability (Average, two targets)” value came to 0.5186. In data set [1], the “Editing Efficiency (Normalized, Average, two targets)” value turned out to be 4.602 and the “Editing Efficiency (Absolute, Average, two targets)” value amounted to 11.4025. Moreover, in data set [2], the “Activity across all experiments” value is listed as −4.877. For the same molecule, in the data set with gene editing with dCas9, the “dCas9 with SSAP activity” value is on record as −2.480 and the “dCas9 with SSAP activity (normalized)” value was −0.364. In addition, in the data set on gene editing with Cas9, the “Cas9 with SSAP activity” value is reported as −7.274 and the “Cas9 with SSAP activity (normalized)” value is −1.400.

B7: Homolog_T1: RecT, Pantoea stewartii; SEQ ID NO: 115 (protein, listed as Pantoea stewartii)
chain: MSNQPPIASADLQKANTGKQVANKTPEQTLVGFMNQPAMKSQLAAALPRHMTADRMIRIVTTEIRKTPALATCDQSSFIGAVVQCSQLGLEPGSALGHAYLLPFGNGRSKSGQSNVQLIIGYRGMIDLARRSGQIVSLSARVVRADDEFSFEYGLDENLIHRPGENEDAPITHVYAVARLKDGGTQFEVMTVKQIEKVKAQSKASSNGPWVTHWEEMAKKTVIRRLFKYLPVSIEMQKAVILDEKAESDVDQDNASVLSAEYSVLDGSSEE
Take B7: the “Mean mKate+ (%), HSP90AA1” value in the data set on HSP90AA1 locus came out at 8.0733%. The “Mean mKate+ (%), DYNLT1” value in the data set with DYNLT1 locus was 11.7333%.

B8: Homolog_E3: RecE, Pantoea dispersa; SEQ ID NO: 120 (protein, listed as Pantoea dispersa)
chain: MEPGIYYDISNEAYHSGPGISKSQLDDIARSPAIFQWRKDAPVDTEKTKALDLGTDFHCAVLEPERFADMYRVGPEVNRRTTAGKAEEKEFFEKCEKDGAVPITHDDARKVELMRGSVMAHPIAKQMIAAQGHAEASIYWHDESTGNLCRCRPDKFIPDWNWIVDVKTTADMKKFRREFYDLRYHVQDAFYTDGYAAQFGERPTFVFVVTSTTIDCGRYPTEVFFLDEETKAAGRSEYQSNLVTYSECLSRNEWPGIATLSLPHWAKELRNV
Consider B8, for which the “Mean mKate+ (%), HSP90AA1” value in the data set with HSP90AA1 locus is on record as 6.7467%. For the same molecule, the “Mean mKate+ (%), DYNLT1” value in the data set on DYNLT1 locus is on record as 2.0533%.

B9: Homolog_E4: RecE, Type-F symbiont of Plautia stali; SEQ ID NO: 122 (protein)
chain: MQPGIYYDISNEDYHGGPGISKSQLDDIAISPAIYQWRKHAPVDEEKTAALDLGTALHCLLLEPDEFSKRFEIGPEVNRRTTAGKEKEKEFMERCEAEGVTPITHDDNRKLRLMRDSAMAHPIARWMLEAQGNAEASIYWNDRDTGVLSRCRPDKIITDFNWCVDVKSTADIIKFQKDFYSYRYHVQDAFYSDGYESHFDETPTFAFLAVSTSIDCGRYPVQVFIMDQQAKDAGRAEYKRNIHTFAECLSRNEWPGIATLSLPYWAKELRNE
modifications: Type-F symbiont of Plautia stali
As to B9, in the data set with HSP90AA1 locus, the “Mean mKate+ (%), HSP90AA1” value was found to be 6.2567%. Moreover, the “Mean mKate+ (%), DYNLT1” value with DYNLT1 locus worked out at 5.7200%.

B10: SSAP_198: SEQ ID NO: 367; Streptomyces sp. ms191 (protein, listed as Streptomyces sp.)
chain: VEHYKADLAQVMPSHVKPDTFIRLAVGVLRRDRNLAQAAQNNPAALMGALMDAAQLGLTPGTEQFYLVPRKKAGRLEVQGIRGYQGEIELIYRAGAVSSVIVEVVRQADTFRYSPGRDERPEHEIDWDAEDRGPLRLVYAYAVMKDGATSKVVVLNRAQVMKAKAMSQGSDSAYSPWQKHEEAMWMKTAAHRLTKWVPTSAEYMREQLRAAAEVAAEHRPTPVAAAPGMPSVPGEDEAIEAEFVDEDEVA
Take B10: the “Cell Viability (Average, two targets)” value in the data set on mammalian cells came to 0.4444. In data set [1], the “Editing Efficiency (Normalized, Average, two targets)” value is given as 5.524 and the “Editing Efficiency (Absolute, Average, two targets)” value is on record as 13.65. Moreover, the “Activity across all experiments” value in data set [2] was −3.320. In the data set with gene editing with dCas9, the “dCas9 with SSAP activity” value was −2.578 and the “dCas9 with SSAP activity (normalized)” value is −0.849. Also, in the data set with gene editing with Cas9, the “Cas9 with SSAP activity” value is reported as −4.061 and the “Cas9 with SSAP activity (normalized)” value is recorded as −0.571.
